assay: soluble on expression in E. coli; label from the status in PepcDB or PDB records

**Q.** With “MGSDKIHHHHHHESSKSGYQTTGENNSSDYQGIIEDGEYKTSKSRGVGISQNSDNLLNLKSFEAGLTTISKDHFSTKSYIFQEGQYLNKATIQDWLGRKSSSNPEGLNPSDNGKKEANKRNPIYVQQIEEQDYMKQNNGKLELAGMTIGIGMNQKDYYQKEQYGATYSTTISKEKRIEEGKIAAKKVLARVRQKVGNNVPIVIAMFAQAPNDSLVGGYFYSYTVSKSGTDIGSWTETNIKSYVLPATEDNKLPNDNDSTSFDNFQKEVKNFFPNISNVTGQGQYKDKTLQGLHITITTQFYSETEITSFTQYVAQAAKSYLPSGIPVDIKINGSDGETQSFVSTTGGNGGYYTHVFGSY” as the sequence, how does the “soluble on expression in E. coli” value read?
**A.** Its value is “not soluble”.

**Q.** For “GDKAYTDAESYTKGLHKIYSVWALSGQDGSSSSDISGLDAGNTALLRCWWTLQEQPTDEMKNAWNDAWCTEVNYMTWTTNKVEPIEGVYQRCMYIVALVNEFLKNIPNAPESIDKESYIAQARFNRAFAYYVLMDMFALPPFITEKNYSIEPAPLSREDLFNWIEAELNEIKPNLPSPRSEYGVADQAVASALLARMYLNAEIYTGKARYTECINACNEVIKAGYQLADNYADLFKADNGENPDTKKEIIYPIIFDGDKTQSWGMAAIIIGARGAEDKDVLLAHSGVDQGWAGFRATSNLVHLFDFQNDEEPKASEIQDKRGIFYDKGRSIDITSSVSGTFETEGWSVFKFSNLNSNGQPGKNTLWVDTDFPMFRLGDIYLMYAEAVARGGEGSKASAVEYINALRKRAYGDDKHNISENWLEENNFRNLLDERGRELYWEGIRRTDLVRFDLLTSGSYTWDFKGGINTGVGVNKRYNVYPIPVTDLTVNGNLQQNEGY”, which “soluble on expression in E. coli” value is on record?
**A.** Its value is “soluble”.

**Q.** For “MAHHHHHHMARHSSTPLSSSVCVRRKTMSSCRTSSFTHTSSRTLARVQRRFSRETTAPRAVLVTLQDARTNPRNAVRRLDDIHIPSLNQRLSSRLQNSSSQSNRDAIRSPSDANCTAQPNSDNANLATAVLSTKTSATQDAKFLLMPSISVSARAPDTAMADASCNTAPSASS”, which “soluble on expression in E. coli” value is on record?
**A.** Its value is “not soluble”.

**Q.** For “MFSYSSSDWQRRFDEPEKPSRIIAHHDERGPFAKDRARVLHSAALRRLADKTQVVGPRDGDNPRTRLTHSLEVAQIARGIGTGLGLDADLCEMAGLTHDIGHPPYGHNGEKALAEIAQDCGGFEGNAQTLRILSKLEPKIVDDHDQSYGLNLTRAALDAACKYPRTKTNPDGSVNKKYGCYDEDAHILQWVRQGHEDTSACVEAQAMDFSDDIAYSVHDVEDGIVSGRVHLGVLWDFVELAELAEKGARAFGGTPEALVDAADHLRELPIISAAADFDGSLRGYVDLKAMTSQLVGRYVGAVIEASRAANPTGVFGRSTGQVVVPDQVLAEVTLLKTIAVLYVMDDPTHRQRQDRQRERIYRVYDYLVAGGRGALDPMFRLWWEQAESEAQRQRVIIDNISSMTESRLERVAKQSAELSSFMG”, which “soluble on expression in E. coli” value is on record?
**A.** Its value is “not soluble”.

**Q.** With “MSLAILPPDSLETALSQAQQATQAALQAGKNRLQIEILLPDLNPMGLAAGYLPLFAELGSDLKVFFADAGSAALARREWGETAYSVRGVNERLTPIEASDRAIVIVAPTPVEVTAIEQMCLTAGDRPFIMLNPRLQDVAVVGIGYAGRQLRERFLNTLEPCYYLRPLAETVILWRCYPQAWQIWQYRETAPTCLAEFEQRPTSEDIERALSALGKPRAQSFLSRLSALLRALQSEGHHHHHH” as the sequence, how does the “soluble on expression in E. coli” value read?
**A.** Its value is “soluble”.

**Q.** With “GMNVDFINPFLDSLLNVLKTMANMELKPGKPNLKKDNLAKGDVSGLIGMVGPQTKGSLSITFEETLILEIMNKMLGEKPESIDEEVTDLVGELTNMVTGGAKNLLSDKGYEFDMATPIVVSGKNHTIAHKSDGQKIIMPFSSIYGTAYIEICFEG” as the sequence, how does the “soluble on expression in E. coli” value read?
**A.** Its value is “soluble”.

**Q.** Which “soluble on expression in E. coli” value does the source give for “DDNERLSKVEKARQLREQVNDLFSRKFGEAIGMGFPVKVPYRKITINPGCVVVDGMPPGVSFKAPSYLEISSMRRILDSAEFIKFTVIRPFPGLVINNQLV” here?
**A.** The value was “soluble”.

**Q.** For “MTEALELGDCLLSGAVGLVVKRRSGIAEDVARLVVKELVESGVEVLVDETVDYPSLSGFPRFSISRDPPGRVVVVGGDGTLLRTFLRLGERESPLFMTIKAGKKGFLLDVERYEAVERLRDFLEGRFREVVYPRYRVYLEGEARACMFNDTAVTANNAKMARVHVFVDGDLAMNIDGDGVVVSTTAGSTAYSLSGGGPIIDPRLDVIVLTPLNPVQLFLRSIVVPSGSRVTVEASVYSNPLVVNIDGQYVYELEPGGIVDIERCGSGVRIARFRWWEDYYERLYTRLLAYWAAALEHHHHHH”, which “soluble on expression in E. coli” value is on record?
**A.** Its value is “not soluble”.

**Q.** Which “soluble on expression in E. coli” value does the source give for “MGKEALLNLYRIEYRPKDTTFTVFKPTHEIQKEKLNKVRWRVFLQTGLPTFRREDEFWCAGKVEKDTLYLTLSNGEIVELKRVGEEEFRGFQNERECQELFRDFLTKTKVKDKFISDFYKKFRDKITVQGKNRKIALIPEVNEKVLKSEEGYFLLHLDLKFRIQPFETLQTLLERNDFNPKRIRVKPIGIDFVGRVQDVFKAKEKGEEFFRLCMERSTHKSSKKAWEELLKNRELREKAFLVVLEKGYTYPATILKPVLTYENLEDEERNEVADIVRMEPGKRLNLIRYILRRYVKALRDYGWYISPEEERAKGKLNFKDTVLDAKGKNTKVITNLRKFLELCRPFVKKDVLSVEIISVSVYKKLEWRKEEFLKELINFLKNKGIKLKIKGKSLILAQTREEAKEKLIPVINKIKDVDLVIVFLEEYPKVDPYKSFLLYDFVKRELLKKMIPSQVILNRTLKNENLKFVLLNVAEQVLAKTGNIPYKLKEIEGKVDAFVGIDISRITRDGKTVNAVAFTKIFNSKGELVRYYLTSYPAFGEKLTEKAIGDVFSLLEKLGFKKGSKIVVHRDGRLYRDEVAAFKKYGELYGYSLELLEIIKRNNPRFFSNEKFIKGYFYKLSEDSVILATYNQVYEGTHQPIKVRKVYGELPVEVLCSQILSLTLMNYSSFQPIKLPATVHYSDKITKLMLRGIEPIKKEGDIMYWL” here?
**A.** Its value is “soluble”.

**Q.** For “MHNKWYWTFKHILWGPILRVYNRPEIHGLENIPDKGSAILASNHQAVMDSFYLPLMSPRQITFPAKQEYFTTPGFVGSLQRWFFTAVGQVPIDRTSKSASDDLLKTARMVLDRGDLFGIYPEGTRSPDGRIYRGKTGMARIALDTNVAVVPIAMIGSRDANPIGTWIPRPHKVVIKVGEAISPRSFVSDAGYDPDSYEAMRFFTDHVMKVLADLTGQQYVDLYAADVKKSLAAGKGYPEGA”, which “soluble on expression in E. coli” value is on record?
**A.** Its value is “not soluble”.

**Q.** For “MAGDPMLNSFKLSLQYILPKLWLTRLAGWGASKRAGWLTKLVIDLFVKYYKVDMTEAQKPDTASYRTFNDFFVRPLRDDVRPLNTDPNILVMPADGVISQLGRIEEDKILQAKGHNYSLEALLAGNYLMADKFRNGTFVTTYLSPRDYHRVHMPCNGILREMIYVPGDLFSVNHLTAQNVPNLFARNERVICLFDTEFGPMAQILVGATIVGSIETVWAGTITPPREGIIKRWTWPEGEHEGSVALLKGQEMGRFKLGSTVINLFAPGKVNLIASLASLSVTKIGQPLATSTETFVAPEVEPAPLPAEEIKAEHDASPLVDNKKDDTLEHHHHHH”, which “soluble on expression in E. coli” value is on record?
**A.** The value was “soluble”.

**Q.** Which “soluble on expression in E. coli” value does the source give for “MKNKLFASALCAAALFTTNAMAKDQELYFYNWSEYIPSEVLEDFTKETGIKVIYSTYESNESMYAKLKTQGAGYDLVVPSTYFVSKMRKEGMLQEIDHSKLSHFKDLDPNYLNKPFDPGNKFSIPYIWGATGIGINTDMLDKKSLKNWGDLWDAKWAGQLMLMDDAREVFHIALSKLGYSPNTTNPKEIKAAYRELKKLMPNVLVFNSDFPANPYLAGEVSLGMLWNGSAYMARQEGAPIQIIWPEKGTIFWMDSISIPAGAKNIEAAHKMIDFLLRPENAAKIALEIGYPTPVKTAHDLLPKEFANDPSIYPPQSVIDNGEWQDEVGEASVLYDEYFQKLKVND” here?
**A.** The value was “soluble”.

**Q.** For “MGSPTAEELTGCLFFSPDDGRIWLNDQRMLLLHSSSFGTLRREIIERLGQEPARGMFTRAGYLSGARDARLIRERWPLADATSAFRAGTHLHTLEGMAKVESLHFKFDAESGFYEGEFLWHNSCEADEHLAACGTGQDPVCWTEIGYAIGFVSGLFGQMVIFREVECRGMGHASCRVIGKTAEQWGDVERDLSYLSVAKTVAPAHTPALANAHYDAGPPTGTDQPLIGASAAFNAATQALQRVAMTPATVLISGESGVGKEMFARQLHQLSRNREGPFVALNCAAIPDNLIEAELFGVERGAYTGATHSRPGRFERANGGTLFLDEITSLSLAGQSKLLRALQEREIERVGGGHGIKVNVRVVAATNVDLRKAVAEGDFREDLFYRLNVYPIALPPLRERRDDIPLLINAFLQRFCHEYGRTPAGLTMRALKTLLRYDFAGNVRELQNLIERGLIASDEGQAIDLVHIFRNESLPVDSYSLNHDGALSKAAPPIAHTAQGAALLDTLSQEKQAFSIEELEQQLIREALEKSAGNLAAASRLLGLSRAQFA”, which “soluble on expression in E. coli” value is on record?
**A.** Its value is “not soluble”.

**Q.** For “MAEIHYLISDASKKVDVEAHVLRYWEEELELPIPRNDMGHRYYTDFHIRLFKQVKVLKEKGYQLKAIKTALAKSLQDGKVIIPSEVLEEDVIAALKETGIGEQDMKEQKGNENKNGEKRADEKVKDGQACEGGGEAGLTALDKDSVEALLAGEKMEQFQKVMNHIIGRAMEENSEKLSQDISYLVHDKLMKEMEYLMRVSDEREEERFKQLDEVIRAYQRDNQGRAEAAASVTGFPFFRFKKKKFGRNGNKL”, which “soluble on expression in E. coli” value is on record?
**A.** Its value is “not soluble”.

**Q.** For “GPMATESPNSVQKIVVHLRATGGAPILKQSKFKVSGSDKFANVIDFLRRQLHSDSLFVYVNSAFSPNPDESVIDLYNNFGFDGKLVVNYACSMAWG”, which “soluble on expression in E. coli” value is on record?
**A.** The value was “soluble”.

**Q.** Which “soluble on expression in E. coli” value does the source give for “ASSKNLSETLFQNHKQAKETSSLTQYMPSSLELLDTRREQSSQAWYRNLRRLQWIWQGVDPVEQEEILARIASSKHSRTHDEWLDTVMGYRSGNWTYEWTRVGMLHQKQAAERQGEEAADQMFAAALYYSIAGYPHLRNDNLALQAQVLANNAYQEAAKLTGFVVKRLEFSYQNKKIAGYLHLRNTDSPKPVVLVSAGLDSLQTDMWRLFRDYLAKRDIAMLTIDMPSLGASSHWPLTEDSSCLHQAVLNQLADLPWVDHFRIGLIGFRFGGNAMARLAFLESDKVKACVSLGAPIHDIFTSPNKLAAMPKMYLDVLASRLGKNVVDVRSLSGQLMAWSLKVQGFMSGRRTKTPILALGLEGDPVSPYSDNQLVALFSQGGQAKKVKSKTISQGYEQSLDLAINWLEDELC” here?
**A.** Its value is “not soluble”.

**Q.** With “MSLAFEPPRRLVRAFGETAPEGDDWLATLPEVAERAVARRGLTVERVQVPGGRSSLVVLVRTAEGAPAVLKLAPRRARPESERAALVHWGGRGAVQVREEGDEEGVLLLERLHPDVSVRSLPEAKALLEAAGTLRRLWVEPPGSHPFETVAERTGRQAEAMRAGAAADAQVAPLVDAALAARAELLGGPSEQRLLHGTFRQSKVLAGDRMPWLAVGPDPVVGESAFDLARLVRDRVEDLIAQPSGASTTRRRIKRLAESLEVDQERLRGWTLFRAVESGVRARRVGRERDAELLLEFAGWLEGHHHHHH” as the sequence, how does the “soluble on expression in E. coli” value read?
**A.** Its value is “not soluble”.

**Q.** For “MRLVQDYDQQPIMYDEVELLIQAVDQQPHPLLRLRDKAIIQLGLQGGFRRSELANLKVHYLSFMRDKLKVRLPFSKSNQQGLREWKSLPDSEPFAAYHAVKSWLNESQITDGHLFRSISRDGKTLRPYHVNDNSKPKSTFSRNSGFLNGDDIYRIIKQYCLKAGLPAQYYGAHSLRSGCVTQLHENNKDILYIMARTGHTDPRSLRHYLKPKEDLEHHHHHH”, which “soluble on expression in E. coli” value is on record?
**A.** The value was “soluble”.

**Q.** For “MSYLVVTIKVILITGMPGSGKSEFAKLLKERGAKVIVMSDVVRKRYSIEAKPGERLMDFAKRLREIYGDGVVARLCVEELGTSNHDLVVFDGVRSLAEVEEFKRLLGDSVYIVAVHSPPKIRYKRMIERLRSDDSKEISELIRRDREELKLGIGEVIAMADYIITNDSNYEEFKRRCEEVTDRVLKNG”, which “soluble on expression in E. coli” value is on record?
**A.** Its value is “not soluble”.

**Q.** With “MGSDKIHHHHHHMVELQRVTASSLQQSFAGDVYNTGVYLKRTFSDINTHLVTAIGQDSFSQAMLQRFEDEKINTDMVFQSTDKIAGLYAIQTDSKGERSFTYWRNDSAAKQIMQFIGDAAISKISQADMVFFSGISLAVINEEDRDAFWLLIKQCKQAGVSIVFDPNYRARMWHSPDQAKAQFDIAFSVADVVLPGVDDFNQLYGISSVEDIIAFCQPYDINELVIKNGENGINYVINGQQQHFSITPVTNVVDTTSAGDSFNGVYLGARLTGADISTAIKLASQAAGFVIQHKGAIAPKIEFHQFIERQKLIMQ” as the sequence, how does the “soluble on expression in E. coli” value read?
**A.** Its value is “not soluble”.

From the DeepSol protein solubility set
